What all share (experiment): cell-based or functional assay
Assay [1] deals with SARS-CoV2 Spike D614G (on pVSV-Luc-SARS-CoV2-S pseudovirus) (SARS-CoV2) (UniProt P0DTC2).
In assay [2] the target is SARS-CoV2 Spike, Omicron BA.1 variant (on pseudovirus) (SARS-CoV2).
Assay [3] has as its target SARS-CoV2 Spike, Omicron BA.2 variant (on pseudovirus) (SARS-CoV2).
The target in assay [4] is SARS-CoV2 Spike, Omicron BA.2.12.1 variant (on pseudovirus) (SARS-CoV2).
The target in assay [5] is SARS-CoV2 Spike, Omicron BA.4.6 variant (on pseudovirus) (SARS-CoV2).
Assay [6] deals with SARS-CoV2 Spike, Omicron BA.4/BA.5 variant (on pseudovirus) (SARS-CoV2).
For assay [7], the target named is SARS-CoV2 Spike, Omicron XBB1.5 variant (on pseudovirus) (SARS-CoV2).

Sequence of ACE2 (615/615)-IgG-Fc (Q9BYF1 18-615 limits assumed): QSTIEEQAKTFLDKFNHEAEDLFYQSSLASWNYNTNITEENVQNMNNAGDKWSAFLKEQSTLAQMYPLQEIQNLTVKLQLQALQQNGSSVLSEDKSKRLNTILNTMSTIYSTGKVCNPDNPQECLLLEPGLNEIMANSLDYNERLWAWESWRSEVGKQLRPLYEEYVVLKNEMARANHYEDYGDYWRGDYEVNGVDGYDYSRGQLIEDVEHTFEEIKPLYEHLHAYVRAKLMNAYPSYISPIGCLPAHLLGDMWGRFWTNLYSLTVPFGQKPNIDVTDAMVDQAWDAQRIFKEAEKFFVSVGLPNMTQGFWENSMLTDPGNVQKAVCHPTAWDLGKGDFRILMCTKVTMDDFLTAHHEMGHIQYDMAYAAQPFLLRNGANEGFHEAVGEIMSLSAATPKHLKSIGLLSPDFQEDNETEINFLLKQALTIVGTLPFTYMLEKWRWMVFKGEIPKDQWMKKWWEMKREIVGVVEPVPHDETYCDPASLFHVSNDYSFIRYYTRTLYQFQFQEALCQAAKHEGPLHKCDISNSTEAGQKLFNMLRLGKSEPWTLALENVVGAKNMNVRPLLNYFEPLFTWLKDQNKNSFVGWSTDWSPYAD
Sequence of ACE2 (615/615)-IgG-Fc (Q9BYF1 18-615 limits assumed): as above

As for “ACE2 v2.4 (615)-Fc (x2), second row of this label in Table 6 (Fc fusion)”, the Fold reduction from against D614G in assay [1] came out at 515 fold; in assay [2], 240 fold; in assay [3], 515 fold; in assay [4] it was 468 fold; in assay [5] it was 343 fold; in assay [6] it was 317 fold. The IC50 [M], neutralization is 2.73e-09 M in assay [1]; 1.27e-09 M in assay [2]; 2.73e-09 M in assay [3]; 2.48e-09 M in assay [4]; 1.82e-09 M in assay [5]; 1.68e-09 M in assay [6].
As to “ACE2 (615/615)-IgG-Fc (from UniProt Q9BYF1 18-615; Q9BYF1 18-615) (Fc fusion)”, the Fold reduction from against D614G was 19.4 fold in assay [1]; 1.25 fold in assay [2]; 3.51 fold in assay [3]; 2.32 fold in assay [4]; 6.32 fold in assay [5]; 11.6 fold in assay [6]. Also, the IC50 [M], neutralization in assay [1] came to 1.03e-10 M; in assay [2] it was 6.61e-12 M; in assay [3], 1.86e-11 M; in assay [4], 1.23e-11 M; in assay [5], 3.35e-11 M; in assay [6], 6.17e-11 M.
Consider REGEN-COV (REGN10933+REGN10987), for which the IC50 [M], neutralization in assay [1] is 5.2e-12 M; in assay [7], over 2e-08 M.

Values taken from patent US20240252601A1.
